From paper PMC10783490, “Biochemical and cellular insights into the Baz2B protein, a non-catalytic subunit of the chromatin remodeling complex” (Nucleic Acids Research, 2023) come the findings set out here.

In one data set the target is T1, BRD^Baz2B L2127V (human, UniProt Q9UIF8 2054-2168, L2127V, fluorescent label (Monolith NT Protein Labelling Kit RED-NHS)).
T1 construct: bromodomain (BRD) of human Baz2B with a cancer-associated point mutation, made on pNIC28-Bsa4-BAZ2B-BRD; Same limits as m1; mutation found in breast cancer; source: E. coli BL21(DE3)-R3-pRARE2, purified (Ni-NTA, Sephadex 75)
T1 sequence: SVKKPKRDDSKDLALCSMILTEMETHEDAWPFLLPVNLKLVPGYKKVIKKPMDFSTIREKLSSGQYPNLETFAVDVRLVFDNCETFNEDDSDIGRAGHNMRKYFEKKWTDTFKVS
Kind of data set: MST; 100 nM fluorescently labelled (RED-NHS) BRD^Baz2B, peptide (H3 or H3K14ac) titrated; MST buffer 150 mM Tris-HCl, 50 mM NaCl, 10 mM MgCl2, pH 7.6, 0.0025% Pluronic, 200 ng/ul BSA; 25 C, 20% MST power; at least triplicate. Conditions: both partners purified.

The target of another data set is T2, BRD^Baz2B T2138I (human, UniProt Q9UIF8 2054-2168, T2138I, fluorescent label (Monolith NT Protein Labelling Kit RED-NHS)).
T2 construct: bromodomain (BRD) of human Baz2B with a cancer-associated point mutation, made on pNIC28-Bsa4-BAZ2B-BRD; Same limits as m1; mutation found in multiple myeloma; source: E. coli BL21(DE3)-R3-pRARE2, purified (Ni-NTA, Sephadex 75)
T2 sequence: T1 sequence with V74L, T85I
The description is as above. Conditions: both partners purified.

For a further data set, the target named is T3, BRD^Baz2B F2139C (human, UniProt Q9UIF8 2054-2168, F2139C, fluorescent label (Monolith NT Protein Labelling Kit RED-NHS)).
T3 construct: bromodomain (BRD) of human Baz2B with a cancer-associated point mutation, made on pNIC28-Bsa4-BAZ2B-BRD; Same limits as m1; mutation found in endometrial cancer; source: E. coli BL21(DE3)-R3-pRARE2, purified (Ni-NTA, Sephadex 75)
T3 sequence: T1 sequence with V74L, F86C
Described as above. Conditions: both partners purified.

Another data set deals with T4, BRD^Baz2B D2143N (human, UniProt Q9UIF8 2054-2168, D2143N, fluorescent label (Monolith NT Protein Labelling Kit RED-NHS)).
T4 construct: bromodomain (BRD) of human Baz2B with a cancer-associated point mutation, made on pNIC28-Bsa4-BAZ2B-BRD; Same limits as m1; mutation found in breast invasive carcinoma; source: E. coli BL21(DE3)-R3-pRARE2, purified (Ni-NTA, Sephadex 75)
T4 sequence: T1 sequence with V74L, D90N
The description is as above. Conditions: both partners purified.

Data set [1] deals with T5, His6-BRD^Baz2B (bromodomain of human Baz2B, wild-type) (human, UniProt Q9UIF8 2054-2168, fluorescent label (Monolith NT Protein Labelling Kit RED-NHS)).
T5 construct: bromodomain (BRD) of human Baz2B, from plasmid pNIC28-Bsa4-BAZ2B-BRD; also called BAZ2B-BRD; source: E. coli BL21(DE3)-R3-pRARE2, purified (Ni-NTA, Sephadex 75)
T5 sequence: T1 sequence with V74L
Described as above. Conditions: both partners purified.

A further data set concerns the target T6, BRD^Baz2B K2098N (human, UniProt Q9UIF8 2054-2168, K2098N, fluorescent label (Monolith NT Protein Labelling Kit RED-NHS)).
T6 construct: bromodomain (BRD) of human Baz2B with a cancer-associated point mutation, made on pNIC28-Bsa4-BAZ2B-BRD; Same limits as m1; mutation found in multiple myeloma; source: E. coli BL21(DE3)-R3-pRARE2, purified (Ni-NTA, Sephadex 75)
T6 sequence: T1 sequence with K45N, V74L
The description is as above. Conditions: both partners purified.

The target in the next data set is T7, BRD^Baz2B L2073V (human, UniProt Q9UIF8 2054-2168, L2073V, fluorescent label (Monolith NT Protein Labelling Kit RED-NHS)).
T7 construct: bromodomain (BRD) of human Baz2B with a cancer-associated point mutation, made on pNIC28-Bsa4-BAZ2B-BRD; Same limits as m1; mutation found in pancreatic cancer (COSMIC/ICGC); source: E. coli BL21(DE3)-R3-pRARE2, purified (Ni-NTA, Sephadex 75)
T7 sequence: T1 sequence with L20V, V74L
The description is as above. Conditions: both partners purified.

Data set [2] concerns the target T8, TAM-AT1-AT2 Baz2B (Homo sapiens, UniProt Q9UIF8 721-884).
T8 sequence: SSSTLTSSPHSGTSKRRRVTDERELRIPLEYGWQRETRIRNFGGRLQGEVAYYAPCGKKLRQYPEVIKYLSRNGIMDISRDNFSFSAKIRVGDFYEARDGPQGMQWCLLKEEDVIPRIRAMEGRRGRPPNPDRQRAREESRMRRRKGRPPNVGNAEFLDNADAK
The data set can be described thus: MST; EMSA: 20 mM HEPES pH 7.5, 30 mM KCl, 1 mM EDTA, 10 mM (NH4)2SO4, 1 mM DTT, 4 C, 10 nM probe; MST: same plus 0.1 ug/ml BSA, 5 nM probe, 25 C; GST-AT-hook and bromodomain EMSA as in cited refs. Conditions: protein: recombinant; tags: His6; label: 5' Cy5. (In general: A gel shift assay detects complexes by their altered migration in electrophoresis.)

The target in data set [3] is T8, TAM-AT1-AT2 Baz2B. The data set can be described thus: EMSA; EMSA: 20 mM HEPES pH 7.5, 30 mM KCl, 1 mM EDTA, 10 mM (NH4)2SO4, 1 mM DTT, 4 C, 10 nM probe; MST: same plus 0.1 ug/ml BSA, 5 nM probe, 25 C; GST-AT-hook and bromodomain EMSA as in cited refs. Conditions: protein: recombinant; tags: His6; label: 5' Cy5.

Positions count from the first letter of the chain named.

B1: H3K14ac peptide (Ac-TARKSTGGK(ac)APRKQL-NH2) (peptide)
peptide: Ac-TARKSTGGK(Ac)APRKQL-NH2
notes: N-terminal tail of histone H3, residues 6-20; also called acetylated H3 tail peptide; acetylated at K14 (K14ac) N-terminal H3 histone tail peptide; source: synthetic peptide, bought: alta Bioscience
On to B1, for which the Kd amounted to 30 µM with BRD^Baz2B L2127V; 94 µM in the data set with BRD^Baz2B T2138I; 20 µM with BRD^Baz2B F2139C; 133 µM in the data set with BRD^Baz2B D2143N; 16 µM in [1]; 24 µM with BRD^Baz2B K2098N. For the same molecule, the Kd in the data set with BRD^Baz2B L2073V was 78 µM.
With GGGGGGUCAUUUUUGGGGAAACCCUGUCUCUUUCC (structured_RNA) [pRNAmini], the Kd with TAM-AT1-AT2 Baz2B [2] was found to be 0.288 µM; with TAM-AT1-AT2 Baz2B [3], 0.137 µM.

For orientation: Kd means the concentration at which binding is half-saturated.
